The values below come from patent publication US20110250613A1, “Arrayed Multiple Ubiquitin Binding Domains as Linkage-specific Polyubiquitin Affinity Reagents” (THE JOHNS HOPKINS UNIVERSITY, priority 2009, published 2011).

Common to all, as to details: free fluorescent UBA domain
The target of one experiment is T1, K63-Ub4 (Homo sapiens, UniProt P0CG47, K63R).
T1 construct: Ub and K48- and K63-linked diUb and tetraUb were made as described; made in house
Kind of experiment: Fluorescence anisotropy binding of fluorescent free UBA domains to K63-Ub4. An excerpt: (§1) Fluorescent Labeling. Ede1 UBA, hHR23A UBA1, Dsk2 UBA and Ddi1 UBA were produced as intein fusions and fluorescently labeled using expressed protein ligation as described in Scheibner et al., 2003. The dipeptide used for Ede1 labeling was Cys-Lys, with NHS-rhodamine (Pierce) coupled to the lysine amino group, and was a kind gift from Philip Cole (Johns Hopkins School of Medicine). MALDI mass spectroscopy confirmed the addition of the fluorescent dipeptide to the Ede1 UBA domain and that there was complete cleavage of the initiating methionine residue. hHR23A UBA1, Dsk2, and Ddi1 UBAs were labeled in a similar way, except that the dipeptide contained a fluorescein moiety instead of rhodamine. The fluorescein-labeled dipeptide was made as described in Scheibner et al., 2003. […]
(§2) Fluorescence Anisotropy Binding Assays. Fluorescence anisotropy measurements were performed as described (Sims and Cohen, 2009) using excitation and emission maxima of 492 nm/520 nm (fluorescein), 556 nm/569 nm (Alexa Fluor 546), or 555 nm/578 nm (rhodamine), in binding buffer at 25° C. The concentrations of the fluorescent proteins were calculated using published extinction coefficients (Invitrogen-Molecular Probes). polyUb concentrations were assessed from absorbance at 280 nm using the Ub extinction coefficient of 0.16 (mg per ml)^−1 cm^'1.49. […]
Background: In fluorescence polarisation assays a small probe gives low polarisation when free and higher when bound to something large.

The next experiment deals with T2, K48-Ub2 (Homo sapiens, UniProt P0CG47, K48R).
T2 construct: Ub and K48- and K63-linked diUb and tetraUb were made as described; made in house
Kind of experiment: Fluorescence anisotropy binding of fluorescent free UBA domains to K48-Ub2.
Excerpt: as §1, §2

A further experiment concerns the target T3, K63-Ub2 (Homo sapiens, UniProt P0CG47, K63R).
T3 construct: Ub and K48- and K63-linked diUb and tetraUb were made as described; made in house
Description: Fluorescence anisotropy binding of fluorescent free UBA domains to K63-Ub2.
Excerpt: as §1, §2

The next experiment has as its target K48-Ub4. Description: Fluorescence anisotropy binding of fluorescent free UBA domains to K48-Ub4.
Excerpt: as §1, §2

B1: Ede1 (protein, UniProt P34216 1-1381, looked up)
EH domain-containing and …: MASITFRTPLSSQEQAFYNQKFHQLDTEDLGVVTGEAVRPLFASSGLPGQLLSQVWATVDIDNKGFLNLNEFSAALRMIAQLQNAPNQPISAALYESTPTQLASFSINQNPAPMQSGSATGNTNNTDIPALSSNDIAKFSQLFDRTAKGAQTVAGDKAKDIFLKARLPNQTLGEIWALCDRDASGVLDKSEFIMAMYLIQLCMSHHPSMNTPPAVLPTQLWDSIRLEPVVVNQPNRTTPLSANSTGVSSLTRHSTISRLSTGAFSNAASDWSLSFEKKQQFDAIFDSLDKQHAGSLSSAVLVPFFLSSRLNQETLATIWDLADIHNNAEFTKLEFAIAMFLIQKKNAGVELPDVIPNELLQSPALGLYPPNPLPQQQSAPQIAIPSRASKPSLQDMPHQVSAPAVNTQPTVPQVLPQNSNNGSLNDLLALNPSFSSPSPTKAQTVVQNNTNNSFSYDNNNGQATLQQQQPQQPPPLTHSSSGLKKFTPTSNFGQSIIKEEPEEQEQLRESSDTFSAQPPPVPKHASSPVKRTASTTLPQVPNFSVFSMPAGAATSAATGAAVGAAVGAAALGASAFSRSSNNAFKNQDLFADGEASAQLSNATTEMANLSNQVNSLSKQASITNDKKSRATQELKRVTEMKNSIQIKLNNLRSTHDQNVKQTEQLEAQVLQVNKENETLAQQLAVSEANYHAAESKLNELTTDLQESQTKNAELKEQITNLNSMTASLQSQLNEKQQQVKQERSMVDVNSKQLELNQVTVANLQKEIDGLGEKISVYLTKQKELNDYQKTVEEQHAQLQAKYQDLSNKDTDLTDREKQLEERNRQIEEQENLYHQHVSKLQEMFDDLSQRKASFEKADQELKERNIEYANNVRELSERQMNLAMGQLPEDAKDIIAKSASNTDTTTKEATSRGNVHEDTVSKFVETTVENSNLNVNRVKDDEEKTERTESDVFDRDVPTLGSQSDSENANTNNGTQSGNETANPNLTETLSDRFDGDLNEYGIPRSQSLTSSVANNAPQSVRDDVELPETLEERDTINNTANRDNTGNLSHIPGEWEATPATASTDVLSNETTEVIEDGSTTKRANSNEDGESVSSIQESPKISAQPKAKTINEEFPPIQELHIDESDSSSSDDDEFEDTREIPSATVKTLQTPYNAQPTSSLEIHTEQVIKYPAPGTSPSHNEGNSKKASTNSILPVKDEFDDEFAGLEQAAVEEDNGADSESEFENVANAGSMEQFETIDHKDLDDELQMNAFTGTLTSSSNPTIPKPQVQQQSTSDPAQVSNDEWDEIFAGFGNSKAEPTKVATPSIPQQPIPLKNDPIVDASLSKGPIVNRGVATTPKSLAVEELSGMGFTEEEAHNALEKCNWDLEAATNFLLDSA
For orientation: Kd means the free concentration of one partner at which half of the binding sites on the other are occupied at equilibrium, for simple one-to-one binding. A low value points to tighter binding. On to B1, for which the Kd in the experiment with K63-Ub4 stood at 54 µM; with K48-Ub2, 86 µM; in the experiment with K63-Ub2 it was 120 µM; at K48-Ub4, 31 µM.
